Experimental data: article PMC10646984 (Biomacromolecules, 2023)

T1: Gal-8 (Homo sapiens, UniProt O00214)
T1 construct: made in house; host or cells: Escherichia coli Rosetta 2(DE3)pLysS
T1 sequence (O00214 1-317): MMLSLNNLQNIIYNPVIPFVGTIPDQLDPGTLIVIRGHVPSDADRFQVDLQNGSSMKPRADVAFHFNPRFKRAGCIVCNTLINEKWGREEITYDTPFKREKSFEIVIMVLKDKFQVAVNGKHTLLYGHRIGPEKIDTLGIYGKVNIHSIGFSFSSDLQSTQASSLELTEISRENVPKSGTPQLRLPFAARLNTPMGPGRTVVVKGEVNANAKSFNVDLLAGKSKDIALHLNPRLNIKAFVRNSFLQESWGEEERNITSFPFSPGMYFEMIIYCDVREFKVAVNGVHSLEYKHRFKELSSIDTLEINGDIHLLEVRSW

T2: asialofetuin (ASF; a glycoprotein terminated with LacNAc moieties) (UniProt P12763 19-359, glycoprotein terminated with LacNAc moieties (desialylated glycans))
T2 construct: asialofetuin, the desialylated form of fetuin
T2 sequence (looked up): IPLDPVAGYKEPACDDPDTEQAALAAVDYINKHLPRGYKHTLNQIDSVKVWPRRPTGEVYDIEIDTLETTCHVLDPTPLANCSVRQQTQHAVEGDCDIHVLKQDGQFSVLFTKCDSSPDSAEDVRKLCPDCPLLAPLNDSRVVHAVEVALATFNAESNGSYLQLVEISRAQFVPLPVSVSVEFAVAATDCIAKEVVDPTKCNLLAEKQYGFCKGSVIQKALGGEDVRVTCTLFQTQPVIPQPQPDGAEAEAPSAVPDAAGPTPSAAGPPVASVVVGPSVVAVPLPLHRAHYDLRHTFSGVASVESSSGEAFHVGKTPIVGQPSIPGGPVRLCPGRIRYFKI

B1: Recombinant human galectin-8 (Gal-8) with a full-length peptide linker of 34 aa, N-terminal His-tagged (natural protein, UniProt O00214 1-317, looked up)
chain: MMLSLNNLQNIIYNPVIPFVGTIPDQLDPGTLIVIRGHVPSDADRFQVDLQNGSSMKPRADVAFHFNPRFKRAGCIVCNTLINEKWGREEITYDTPFKREKSFEIVIMVLKDKFQVAVNGKHTLLYGHRIGPEKIDTLGIYGKVNIHSIGFSFSSDLQSTQASSLELTEISRENVPKSGTPQLRLPFAARLNTPMGPGRTVVVKGEVNANAKSFNVDLLAGKSKDIALHLNPRLNIKAFVRNSFLQESWGEEERNITSFPFSPGMYFEMIIYCDVREFKVAVNGVHSLEYKHRFKELSSIDTLEINGDIHLLEVRSW
notes: galectin-8 (tandem repeat), human; contains a full-length peptide linker of 34 aa (3717 Da); ca. 36 kDa; cloned in pET-Duet1 (AscI/NotI); plasmid a gift from Prof; L. Elling; source: E. coli Rosetta 2(DE3)pLysS, purified (Ni-NTA); not shown: His tag, N-terminal, kept

Tests used:
[1] = target: asialofetuin (ASF; a glycoprotein terminated with LacNAc moieties) (UniProt P12763); assay: ELISA; direct binding: ASF (0.1 μM in PBS) coated on the plate, serial dilution of the galectin in EPBS (2 mM EDTA in PBS), bound galectin detected with anti-His antibody-HRP
[2] = DLS hydrodynamic diameter of single components (galectins, Lac-CS-DDMs); format: physicochemical; settings: single component 10 μM in PBS, 25 °C
Protocol: The hydrodynamic diameter of the nanoparticles of galectins, Lac-CS-DDMs, and their aggregates was measured by dynamic light scattering (DLS) using a Zetasizer Nano ZS (Malvern Instruments Ltd., UK) at 25 °C in Malvern disposable plastic microcuvettes (100 μL sample volume). The light scattered at 173° from the incident light was fitted to an autocorrelation function using the method of cumulants (Malvern Instruments Ltd., UK). Commercial sterile PBS was used for sample preparation. […] Mixtures of components were incubated for 90 min at room temperature. The samples were vortexed prior to measurements. The hydrodynamic diameters were determined from five independent repetitions (each 10–50 runs). Multimodal intensity-weighted particle size distribution was used for data analysis.
DLS experiments on the A series of Lac-CS-DDMs and G3-B-AcLac32 were performed to provide insight into the complexity of multivalent galectin/Lac-CS-DDM interactions (Table 2). Unlike ELISA assays that simulate competitive binding on the cell surface, DLS is a straightforward method to evaluate non-surface bound multivalent assemblies.[71] Thus, it is interesting to relate the data obtained by these two methods. Since the transformation of intensity-weighted size distribution to volume-weighted size distribution requires information on the refractive index and absorption of the formed particles and assumes their homogeneity and spherical shape,[72] all presented data come from the analysis of the multimodal intensity-weighted size distribution. As the scattering intensity correlates with the particle diameter to the sixth power, whereas the mass only to the third power, the abundance of larger particles is overestimated at the expense of the smaller ones with respect to the real sample composition, especially in the case of polydisperse samples with multiple size populations.[73] This means that, due to the presence of large aggregates, the particles smaller by orders of magnitude present in the sample may not be detected. Despite the above bottlenecks, we believe that using the size-to-intensity plot is the most appropriate as it is highly sensitive to a starting aggregation, which may be undetectable in the size-to-volume distribution, and it is well suited to compare results between different galectins and Lac-CS-DDM generations to address general differences and trends in their aggregation behavior.

[3] = target: T1, Gal-8; assay: competitive ELISA with immobilized asialofetuin (ASF), Gal-8; format: binding; settings: 1 μM Gal-8, immobilized ASF, DMSO co-solvent
Protocol: (§1) The inhibitory potential of prepared Lac-CS-DDMs toward Gal-1, Gal-3, Gal-8, and Gal-9 was determined using a competitive ELISA assay with immobilized asialofetuin (ASF; a glycoprotein terminated with LacNAc moieties).[41] ASF (0.1 μM in PBS, 50 μL/well) was coated in microtiter plates (Nunc Immuno Sorb, Thermo Fisher Scientific, USA) and incubated overnight. Then, the wells were washed with 3 × 250 μL of PBS buffer containing 0.05% Tween; this washing step followed each incubation step. The wells were then blocked with 2 mg/mL BSA in PBS buffer (250 μL/well) and incubated for 1 h. […] The reaction was stopped by adding 3 M HCl (50 μL per well), accompanied by a color shift to yellow as determined spectrophotometrically by an absorbance microplate reader (Sunrise Tecan Group Ltd., CH). […] A background value, as a mean of the negative control wells containing buffer instead of galectin/ligand, with an absorbance of ca. 0.05–0.075 was subtracted from the measured absorbances. The values of half maximal inhibitory constants (IC50) were calculated from the non-linear regression (dose–response inhibition-variable slope) of the sigmoidal curves using GraphPad Prism 7 (GraphPad Software, USA) from at least three independent experiments with at least two different galectin batches. […]

[4] = target: T3, Gal-9 (Homo sapiens, UniProt O00182, A222P/DEL149-219); assay: competitive ELISA with immobilized asialofetuin (ASF), Gal-9; format: binding; settings: 1 μM Gal-9, immobilized ASF, DMSO co-solvent
T3 construct: made in house; host or cells: Escherichia coli Rosetta 2(DE3)pLysS
Protocol: as §1

[5] = target: T3, Gal-9; assay: direct binding ELISA of galectin to immobilized ASF, Gal-9
[6] = target: T1, Gal-8; assay: direct binding ELISA of galectin to immobilized ASF, Gal-8
[7] = target: T4, Gal-3 (Homo sapiens, UniProt P17931); assay: direct binding ELISA of galectin to immobilized ASF, Gal-3
T4 construct: made in house; host or cells: Escherichia coli Rosetta 2(DE3)pLysS

[8] = target: T5, Gal-1 (Homo sapiens, UniProt P09382, C3S); assay: direct binding ELISA of galectin to immobilized ASF, Gal-1
T5 construct: made in house; host or cells: Escherichia coli Rosetta 2(DE3)pLysS

[9] = target: T2, asialofetuin (ASF; a glycoprotein …); assay: ELISA; direct binding: ASF (0.1 μM in PBS) coated on the plate, serial dilution of the galectin in EPBS (2 mM EDTA in PBS), bound galectin detected with anti-His antibody-HRP; settings: both partners purified

T3 sequence (O00182 with tags, fused parts or gaps DEL149-219/A222P): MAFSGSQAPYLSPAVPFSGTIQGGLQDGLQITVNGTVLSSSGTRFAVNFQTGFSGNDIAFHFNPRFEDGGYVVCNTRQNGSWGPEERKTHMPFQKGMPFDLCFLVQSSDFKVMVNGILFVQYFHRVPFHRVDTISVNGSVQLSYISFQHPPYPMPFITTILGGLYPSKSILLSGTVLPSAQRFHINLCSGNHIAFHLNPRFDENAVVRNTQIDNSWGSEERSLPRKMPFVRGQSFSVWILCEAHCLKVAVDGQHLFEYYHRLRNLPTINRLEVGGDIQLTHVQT
T5 sequence (P09382 whole entry C3S): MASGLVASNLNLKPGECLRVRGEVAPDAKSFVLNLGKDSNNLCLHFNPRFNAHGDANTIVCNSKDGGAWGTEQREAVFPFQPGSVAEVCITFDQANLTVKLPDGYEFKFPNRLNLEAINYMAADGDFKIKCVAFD
T4 sequence (P17931 whole entry): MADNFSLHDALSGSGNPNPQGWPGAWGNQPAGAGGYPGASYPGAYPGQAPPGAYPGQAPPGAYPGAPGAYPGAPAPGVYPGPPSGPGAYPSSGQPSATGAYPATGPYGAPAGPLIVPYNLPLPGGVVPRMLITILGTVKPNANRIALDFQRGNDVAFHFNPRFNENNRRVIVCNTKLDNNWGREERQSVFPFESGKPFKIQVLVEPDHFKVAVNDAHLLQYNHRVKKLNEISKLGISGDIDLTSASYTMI

Molecule	PI (polydispersity index) [2]	hydrodynamic diameter, aggregates >0.5 μm [2] [μm]	hydrodynamic diameter, small particles <50 nm (first fraction) [2] [nm]	intensity-weighted abundance, aggregates >0.5 μm [2] [%]	intensity-weighted abundance, small particles <50 nm (first fraction) [2] [%]	further results
Recombinant human galectin-9 (Gal-9) with a truncated mutated peptide linker HPPYPMPF, N-terminal His-tagged (natural protein)	–	–	–	–	–	Kd [1]: 0.3 µM
Recombinant human galectin-1 (Gal-1) with mutation C2S, N-terminal His-tagged (natural protein)	–	–	–	–	–	Kd [1]: 4.4 µM
Gal-3: recombinant human galectin-3, N-terminal His-tagged	0.6	1.1 ± 0.1	7.9 ± 1.4	13	36	hydrodynamic diameter, aggregates >0.1 μm [2]: 0.4 ± 0.1 μm; intensity-weighted abundance, aggregates >0.1 μm [2]: 40%
OC[C@H]1O[C@@H](O[C@H]2[C@H](O)[C@@H](O)C(O)O[C@@H]2CO)[C@H](O)[C@@H](O)[C@H]1O (mixture of isomers) [lactose]	–	–	–	–	–	IC50 [3]: 1680 ± 420 µM; IC50 [4]: 1350 ± 440 µM
ASF: asialofetuin, a glycoprotein terminated with LacNAc moieties, immobilized competitor in ELISA	–	–	–	–	–	Kd [5]: 0.3 µM; Kd [6]: 0.37 µM; Kd [7]: 3.2 µM; Kd [8]: 4.4 µM
Gal-1: recombinant human galectin-1, N-terminal His-tagged, C2S mutation	0.4	1.2 ± 0.5	1.3 ± 0.1	32	47	hydrodynamic diameter, small particles <50 nm (second fraction) [2]: 19.0 ± 6.0 nm; intensity-weighted abundance, small particles <50 nm (second fraction) [2]: 21%
Gal-8: recombinant human galectin-8, N-terminal His-tagged, full-length peptide linker of 34 aa	0.7	1.4 ± 0.3	5.4 ± 0.5	80	20	–
B1	–	–	–	–	–	Kd [9]: 0.37 µM
